Laboratory results taken from patent US20140243208, “COMPOSITIONS AND METHODS FOR SELECTING APTAMERS” (Mediomics, LLC, published 2014).

Key:
[1] = target: Interleukin-10 (IL-10) (Homo sapiens, UniProt P22301 P22301:19-178); test: ELONA; only IL-10-3 and IL-10-6 of 6 showed potential binding; conditions: tags: coated on ELISA plate; chain copies: 2; label: hybridized biotin-labeled primer
[2] = target: T1, Troponin I (TnI) (Homo sapiens, UniProt P19429 P19429:2-210); test: ELONA; specificity control; conditions: tags: coated on ELISA plate; label: hybridized biotin-labeled primer
[3] = target: T2, C-reactive protein (CRP) (Homo sapiens, UniProt P02741 P02741:19-224); test: ELONA; specificity control; conditions: chain copies: 5; label: hybridized biotin-labeled primer
T2 sequence: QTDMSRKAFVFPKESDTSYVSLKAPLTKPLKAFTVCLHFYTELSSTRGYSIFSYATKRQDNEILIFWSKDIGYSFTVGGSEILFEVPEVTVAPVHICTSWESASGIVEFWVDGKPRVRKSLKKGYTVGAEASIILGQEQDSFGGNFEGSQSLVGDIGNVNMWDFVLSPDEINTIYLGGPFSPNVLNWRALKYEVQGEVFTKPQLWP

[4] = target: Serum albumin (Homo sapiens, UniProt P02768 P02768:25-609); test: ELONA; specificity control; conditions: label: hybridized biotin-labeled primer
[5] = target: T1, Troponin I (TnI); test: ELONA; values only in figure; conditions: tags: coated on ELISA plate; label: hybridized biotin-labeled primer
[6] = target: T3, Alpha-fetoprotein (Homo sapiens, UniProt P02771 P02771:19-609); test: ELONA; specificity control; conditions: label: hybridized biotin-labeled primer
T3 sequence: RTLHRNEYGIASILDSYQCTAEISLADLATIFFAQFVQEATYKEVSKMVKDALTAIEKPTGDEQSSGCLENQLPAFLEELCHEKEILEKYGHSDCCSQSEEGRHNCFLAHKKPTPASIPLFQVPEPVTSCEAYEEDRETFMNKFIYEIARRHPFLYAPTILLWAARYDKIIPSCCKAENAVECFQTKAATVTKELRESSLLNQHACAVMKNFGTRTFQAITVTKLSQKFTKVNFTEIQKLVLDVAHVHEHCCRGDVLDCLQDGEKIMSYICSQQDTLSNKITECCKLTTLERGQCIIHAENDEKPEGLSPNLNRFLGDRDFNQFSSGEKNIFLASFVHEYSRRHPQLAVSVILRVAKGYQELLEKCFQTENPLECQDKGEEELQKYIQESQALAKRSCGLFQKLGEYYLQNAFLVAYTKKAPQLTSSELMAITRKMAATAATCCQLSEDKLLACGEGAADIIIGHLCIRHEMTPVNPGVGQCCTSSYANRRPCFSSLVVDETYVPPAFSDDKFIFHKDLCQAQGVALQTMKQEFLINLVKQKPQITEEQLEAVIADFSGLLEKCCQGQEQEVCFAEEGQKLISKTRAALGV

[7] = target: T1, Troponin I (TnI); test: ELONA; very similar affinity to the other TNI aptamers; conditions: tags: coated on ELISA plate; label: hybridized biotin-labeled primer

Interleukin-10 (IL-10), sequence (P22301 19-178, one chain of several): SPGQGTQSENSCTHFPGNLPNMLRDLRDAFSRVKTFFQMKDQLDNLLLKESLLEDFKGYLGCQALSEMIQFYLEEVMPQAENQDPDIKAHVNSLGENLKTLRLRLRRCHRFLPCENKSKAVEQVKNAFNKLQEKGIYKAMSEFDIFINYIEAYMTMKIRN
Serum albumin, sequence (P02768 25-609, one chain of several): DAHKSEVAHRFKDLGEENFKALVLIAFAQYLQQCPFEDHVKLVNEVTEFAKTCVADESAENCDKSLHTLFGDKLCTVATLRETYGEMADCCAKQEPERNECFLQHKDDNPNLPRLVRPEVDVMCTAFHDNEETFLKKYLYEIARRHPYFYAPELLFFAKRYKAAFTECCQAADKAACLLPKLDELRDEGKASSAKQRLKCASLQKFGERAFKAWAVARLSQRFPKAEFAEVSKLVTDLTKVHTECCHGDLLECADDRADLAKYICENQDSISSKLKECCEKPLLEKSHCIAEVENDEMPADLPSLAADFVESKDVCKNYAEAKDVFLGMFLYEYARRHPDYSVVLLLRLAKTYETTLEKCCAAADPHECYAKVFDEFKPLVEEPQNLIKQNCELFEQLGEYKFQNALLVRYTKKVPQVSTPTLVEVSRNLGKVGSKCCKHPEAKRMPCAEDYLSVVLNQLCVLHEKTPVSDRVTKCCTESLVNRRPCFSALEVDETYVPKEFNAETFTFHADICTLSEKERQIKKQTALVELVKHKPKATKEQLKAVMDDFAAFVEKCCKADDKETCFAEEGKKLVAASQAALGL
T1 sequence (P19429 2-210, one chain of several): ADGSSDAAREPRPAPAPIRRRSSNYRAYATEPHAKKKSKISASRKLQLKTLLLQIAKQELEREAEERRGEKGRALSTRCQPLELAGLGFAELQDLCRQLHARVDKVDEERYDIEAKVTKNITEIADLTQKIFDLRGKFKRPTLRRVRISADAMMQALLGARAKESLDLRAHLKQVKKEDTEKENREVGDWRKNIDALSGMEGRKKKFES

B1: IL-10-5 (ssDNA)
DNA: TAGGTGCTCGACGCTGACCCAGGCACACCTATCCAACTGTCACCGGCCACTCAGTCGCAGGTCATG
binding result [1]: no binding

B2: IL-10-6 (ssDNA)
DNA: TAGGTGCTCGACGCTGACCGGGCATTGACACCTTATCGTGGGGTGGGGACTCAGTCGCAGGTCATG
binding result [2]: no binding
binding result [3]: no binding
binding result [4]: no binding

B3: TNI-N3 (= TNI-MEDI2) (ssDNA)
DNA: CTGTCGTTAGTGAAGGTTGGCGCAGGAACCTGAACGTTCGACGGGGTCGGCACCTGTAACGCCATATCACAGACG
binding result [5]: binds

B4: TNI-3 (ssDNA)
DNA: CTGTCGTTAGTGAAGGTTGGCGGCGGACCGGAACGAGCGGCAGTCGCAGTCGACCCCAACGCCATATCACAGACG
binding result [6]: no binding
binding result [3]: no binding
binding result [4]: no binding

B5: TNI-B3 (ssDNA)
DNA: CTGTCGTTAGTGAAGGTTGGCGGCGGACCGGAACTAGCGGCAGTCACAGTCGACCCCAACGCCATATCACAGACG
binding result [5]: binds

B6: TNI-CRP4 (ssDNA)
DNA: TAGGTGCTCGACGCTGACGGGCGACACCGAGGGGGCTGGGGCGCGGGTACTCAGTCGCAGGTCATG
binding result [5]: binds

B7: TNI-B2 (= TNI-N2) (ssDNA)
DNA: CTGTCGTTAGTGAAGGTTGCAGGCACGCTGCGATATGTCCAGTTGACCCGGTTTGCCAACGCCATATCACAGACG
binding result [5]: binds

B8: TNI-1 (= TNI-B1, TNI-N1, TNI-MEDI1) (ssDNA)
DNA: CTGTCGTTAGTGAAGGTTGGCAACAACGACCGGGACTAACGGCAGCAGCGACACCGGTAACGCCATATCACAGACG
binding result [6]: no binding
binding result [3]: no binding
binding result [4]: no binding

B9: TNI-2 (ssDNA)
DNA: CTGTCGTTAGTGAAGGTTGGTAACAACGACCGGGACTAACGGCAGCAGCGACACCGGTAACGCCATATCACAGACG
binding result [7]: binds

B10: TNI-B5 (ssDNA)
DNA: CTGTCGTTAGTGAAGGTTGGCGGCGGACCGGAACGAACGGCAGCAGCGACACCGGTAACGCCATATCACAGACG
binding result [5]: binds

B11: TNI-CRP1 (ssDNA)
DNA: TAGGTGCTCGACGCTGACCCAGACCCACCAATATATGCCCCGCGGTGTACTCAGTCGCAGGTCATG
binding result [5]: binds

B12: IL-10-4 (ssDNA)
DNA: TAGGTGCTCGACGCTGACCCCCCAGTCACACCTTATGACCGTCCCGCCACTCAGTCGCAGGTCATG
binding result [1]: no binding

B13: IL-10-1 (ssDNA)
DNA: TAGGTGCTCGACGCTGACCCAGGGCTACACCTTATCCATTCGCGCGGTACTCAGTCGCAGGTCATG
binding result [1]: no binding

B14: TNI-B4 (ssDNA)
DNA: CTGTCGTTAGTGAAGGTTGCCCCGGGAACCGAAACTTGCGACCTGTCGTCACCTTGTAACGCCATATCACAGACG
binding result [5]: binds

B15: TNI-4 (ssDNA)
DNA: CTGTCGTTAGTGAAGGTTGCCAAGCGAACTGCGACAGGGGATCCAGGAGACGGCCCCAACGCCATATCACAGACG
binding result [6]: no binding
binding result [3]: no binding
binding result [4]: no binding

B16: TNI-CRP3 (ssDNA)
DNA: TAGGTGCTCGACGCTGACCCAGGGGACACCTATCAATCGTCGTGCGGTACTCAGTCGCAGGTCATG
binding result [5]: binds

B17: IL-10-3 (ssDNA)
DNA: TAGGTGCTCGACGCTGACCCACGAAAGACACCGCAGTCCCTCCACGCTACTCAGTCGCAGGTCATG
binding result [2]: no binding
binding result [3]: no binding
binding result [4]: no binding

B18: IL-10-2 (ssDNA)
DNA: TAGGTGCTCGACGCTGACCCAATCCTGACACACCGTATTAAGCCGCGTACTCAGTCGCAGGTCATG
binding result [1]: no binding

B19: TNI-CRP2 (ssDNA)
DNA: TAGGTGCTCGACGCTGACCCAGGACGGCACCTTAACCGCGCGTGGGCTACTCAGTCGCAGGTCATG
binding result [5]: binds
